The values below come from patent US20210403593A1 (TIZONA THERAPEUTICS, published 2021).

One assay concerns the target T1, Chimera #9 (Homo sapiens (Human), UniProt P49961 1-510).
T1 construct: Expressed on CHO cells
T1 chain: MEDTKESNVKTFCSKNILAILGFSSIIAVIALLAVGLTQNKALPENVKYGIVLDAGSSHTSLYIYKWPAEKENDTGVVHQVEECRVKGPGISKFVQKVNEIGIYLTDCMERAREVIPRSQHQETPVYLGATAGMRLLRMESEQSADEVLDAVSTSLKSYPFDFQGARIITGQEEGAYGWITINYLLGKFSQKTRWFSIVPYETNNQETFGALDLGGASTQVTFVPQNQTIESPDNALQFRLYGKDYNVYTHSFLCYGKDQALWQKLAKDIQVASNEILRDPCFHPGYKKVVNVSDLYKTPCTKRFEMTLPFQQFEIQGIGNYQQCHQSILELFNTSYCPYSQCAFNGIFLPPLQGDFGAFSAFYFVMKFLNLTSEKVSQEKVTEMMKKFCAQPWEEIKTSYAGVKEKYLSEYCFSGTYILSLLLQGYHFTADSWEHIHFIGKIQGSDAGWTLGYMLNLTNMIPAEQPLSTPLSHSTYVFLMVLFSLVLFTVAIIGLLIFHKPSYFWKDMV
Description: FACS on CHO cells; Chimera 2 with human D150 ([..]).

The target in a further assay is T2, Chimera #2 (human, UniProt P49961 1-510).
T2 construct: Expressed on CHO cells; also called human-mouse Chimera #2
T2 chain: T1 chain with D150A
Briefly: FACS on CHO cells; human M1-E142 + mouse Q143-S158 ([..]) + human Y159-V510.

The target in a further assay is T3, Chimera #4 (Homo sapiens (Human), UniProt P49961 1-510).
T3 construct: Expressed on CHO cells
T3 chain: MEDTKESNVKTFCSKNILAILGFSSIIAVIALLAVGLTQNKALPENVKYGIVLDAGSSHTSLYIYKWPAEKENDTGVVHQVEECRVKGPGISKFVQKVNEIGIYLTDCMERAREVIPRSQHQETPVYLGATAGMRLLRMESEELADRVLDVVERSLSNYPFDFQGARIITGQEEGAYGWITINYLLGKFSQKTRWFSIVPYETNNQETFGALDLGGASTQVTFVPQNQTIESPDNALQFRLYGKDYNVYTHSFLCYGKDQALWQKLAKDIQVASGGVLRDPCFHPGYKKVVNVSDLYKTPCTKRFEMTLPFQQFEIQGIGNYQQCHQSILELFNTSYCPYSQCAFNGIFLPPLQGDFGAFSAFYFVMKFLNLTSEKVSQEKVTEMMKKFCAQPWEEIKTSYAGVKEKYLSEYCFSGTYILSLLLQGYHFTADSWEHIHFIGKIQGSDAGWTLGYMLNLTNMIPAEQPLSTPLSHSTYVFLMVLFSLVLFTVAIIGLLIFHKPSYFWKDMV
Briefly: FACS on CHO cells, 15 ug/ml; human M1-S274 + mouse GGV + human L278-V510.

The next assay concerns the target T4, Chimera #14 (Homo sapiens (Human), UniProt P49961 1-510).
T4 construct: Expressed on CHO cells
T4 sequence: T3 chain with E153S, R154T, G275N, G276E, V277I
Briefly: FACS on CHO cells; human CD39 with mouse S153 and T154.

For a further assay, the target named is T5, human CD39 (cellular) (human, UniProt P49961 1-510).
T5 construct: Same protein on engineered CHO cells and on cells that express it endogenously; also called hCD39; cellular CD39
T5 sequence: T3 chain with G275N, G276E, V277I
Briefly: flow cytometry, 100 nM IgG, MFI on CHO-hCD39 / MFI on parental CHO.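 Also: cells exposed to IgG for 30 min on ice in PBS, bound antibody then revealed with a fluorescent goat anti-human IgG secondary (20 min, on ice).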

Changes are numbered by the printed parent chain.

Description for Chimera #14: (§1) The chimeras were expressed in CHO cells and the ability of anti-human CD39 antibodies to bind the chimeras tested via FACS. In brief, cells were washed and blocked in FACS buffer (PBS/2% FBS) for 30 min on ice. […] After 2 washes, cells were resuspended in FACS buffer and analyzed on BD Fortessa. Data was processed with FlowJo. Positive binding was scored as “yes” and lack of binding was scored as “NO” and examples of FACS plots used to generate this table are in FIGS. 14.F and 14.G.
Description for Chimera #2: (§2) The chimeras were expressed in CHO cells and the ability of anti-human CD39 antibodies to bind the chimeras tested via FACS. In brief, cells were washed and blocked in FACS buffer (PBS/2% FBS) for 30 min on ice. […] After 2 washes, cells were resuspended in FACS buffer and analyzed on BD Fortessa. Data was processed with FlowJo.
Description for Chimera #4: as §2
Description for Chimera #9: as §1

B1: 31901 (antibody, human IgG4 S228P, kappa, V domains shown)
VH: QVQLVQSGAEVKKPGSSVKVSCKASGGTFSSLPISWVRQAPGQGLEWMGGIGFGTANYAQKFQGRVTITADESTSTAYMELSSLRSEDTAVYYCARGGAKYAGRYGMDVWGQGTTVTVSS
VL: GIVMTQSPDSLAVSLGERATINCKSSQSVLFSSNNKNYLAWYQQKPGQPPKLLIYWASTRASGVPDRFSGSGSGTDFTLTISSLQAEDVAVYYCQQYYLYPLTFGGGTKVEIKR
Regarding B1, the binding result with Chimera #9 is listed as “no binding (tested: 15 ug/ml)”; with Chimera #2, “no binding (tested: 15 ug/ml)”; in the assay with Chimera #4, “binds”; with Chimera #14, “no binding (tested: 15 ug/ml)”. Also, the “Cell Binding (FOB)” value with human CD39 (cellular) was 1110 fold over background.

B2: 31905 (antibody, human IgG4 S228P, kappa, V domains shown)
VH: B1 VH with S30P, L32N, P33A, G103R, R104T
VL: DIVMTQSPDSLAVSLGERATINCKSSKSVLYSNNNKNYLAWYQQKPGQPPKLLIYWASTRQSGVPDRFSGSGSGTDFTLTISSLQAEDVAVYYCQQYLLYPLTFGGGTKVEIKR
Turning to B2, the binding result with Chimera #9 is “no binding (tested: 15 ug/ml)”; with Chimera #2, “no binding (tested: 15 ug/ml)”; with Chimera #4 it was “binds”; with Chimera #14 it was “no binding (tested: 15 ug/ml)”. In addition, in the assay with human CD39 (cellular), the “Cell Binding (FOB)” value was found to be 1080 fold over background.
